The target in test [1] is T1, human BR3 extracellular domain (human, UniProt Q96RJ3 1-61).
T1 construct: biotinylated where used as tracer; also called hBR3-ECD; BR3-ECD
The experiment in a line: SPR, BR3 ECD on chip. (In SPR one partner is held on a chip, and binding of the other changes the refractive index at the surface.)

Test [2] concerns the target T1, human BR3 extracellular domain. Nature of the test: BIAcore, Fab over immobilised target.
Description: (§1) Each sample was analysed with 2-minute association and 20-minute dissociation. After each injection the chip was regenerated using 10 mM Glycine pH 1.5. Binding response was corrected by subtracting the RU from a blank flow cell. A 1:1 Languir model of simultaneous fitting of kₒₙ and koff was used for kinetics analysis.
Test [3] deals with T2, variant human BR3-Fc fusion.
T2 construct: produced in CHO cells; also called vBR3-Fc; vhBR3-Fc
Nature of the test: SPR, vBR3-Fc on chip.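 Also: Anti-BR3 antibodies passed over chip-bound BR3-Fc in PBS with 0.05% polysorbate 20, on and off rates fitted together globally to a 1:1 binding model.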
Description: After coupling, unoccupied sites on the chip were blocked by injecting 20 μl of 1M ethanolamine, pH 8.5. The running buffer was PBS containing 0.05% polysorbate 20. […] The binding surface was regenerated by injecting 20-30 μl of 10 mM glycine.HCl (pH 1.5). […] Data were analyzed using a 1:1 binding model using global fitting. The association and dissociation rate constants were fitted simultaneously (BIAevaluation software).
A high flow rate was used in order to minimize mass transport effects.

In test [4] the target is T3, MiniBR3 peptide (human, C-terminal amide; disulfide between cysteines 24 and 35 and a second disulfide (BR3 numbering)).
T3 construct: synthetic
T3 sequence (peptide, as listed by the source): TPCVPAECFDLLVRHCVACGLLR
The experiment in a line: phage competition ELISA. A general note: In an ELISA, binding on a coated surface is turned into a signal by an enzyme label.

The target in test [5] is T4, mouse BR3 extracellular domain (mouse, UniProt Q9D8D0 1-64).
T4 construct: also called mBR3-ECD; mBR-ECD
T4 sequence: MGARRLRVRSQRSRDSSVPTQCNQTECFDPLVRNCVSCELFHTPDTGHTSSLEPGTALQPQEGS
Nature of the test: single spot phage competition ELISA; OD with competitor / OD without competitor; criterion met by the picked clones.

The target in test [6] is T1, human BR3 extracellular domain. The test is described as above.
The target in test [7] is T4, mouse BR3 extracellular domain. The experiment in a line: SPR BIAcore-2000, ECD on chip, Fab injected.
Excerpt: (§2) Biacore measurement Surface plasmon resonance assays on a BIAcore™-2000 were used to determine the affinity of anti-BR3 Fabs. […] For kinetics analysis, 1:1 Languir model of simultaneous fitting of kₒₙ and koff was used.
The target of test [8] is T1, human BR3 extracellular domain. Nature of the test: SPR BIAcore-2000, ECD on chip, Fab injected.
Excerpt: as §2
Test [9] deals with T4, mouse BR3 extracellular domain. The experiment in a line: phage competition ELISA.
In test [10] the target is T1, human BR3 extracellular domain. The experiment in a line: phage competition ELISA.
For test [11] the target is unchanged. The experiment in a line: SPR BIAcore-2000, hBR3-ECD on chip, Fab injected.
Excerpt: as §2
For test [12], the target named is T4, mouse BR3 extracellular domain. Nature of the test: SPR BIAcore-2000, mBR3-ECD on chip, Fab injected.
Excerpt: as §2
The target of test [13] is T5, mouse BR3-Fc (mouse).
T5 construct: (BR3 ECD fused to a murine Fc); also called mBR3-Fc; murine BR3-Fc
T5 chain: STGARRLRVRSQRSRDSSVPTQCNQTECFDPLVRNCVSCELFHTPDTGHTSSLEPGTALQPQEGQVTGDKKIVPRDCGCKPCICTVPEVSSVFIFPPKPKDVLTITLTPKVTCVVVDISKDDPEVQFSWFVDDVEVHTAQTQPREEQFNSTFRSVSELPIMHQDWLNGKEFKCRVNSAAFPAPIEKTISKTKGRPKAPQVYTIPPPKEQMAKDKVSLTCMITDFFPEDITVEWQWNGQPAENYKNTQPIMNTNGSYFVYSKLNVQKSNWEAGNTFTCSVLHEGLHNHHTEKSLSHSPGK
The experiment in a line: F(ab)'2 phage solution binding competition ELISA.
Description: (§3) Third, a competition ELISA was performed. […] The wells were blocked by adding 65 ul 1% BSA for 30 minutes followed by 40 ul 1% Tween20 for another 30 minutes. The wells were washed with PBS—0.05% Tween20 5 times. […] The wells of the second plate were washed with PBS—0.5% Tween20 at least three times. 75 ul of HRP-conjugated anti-M13 antibody (1/5000 dilution with ELISA buffer) per well was added and incubated at room temperature for 30 minutes. The wells were washed again with PBS—0.05% Tween20 at least five times.

Test [14] concerns the target T1, human BR3 extracellular domain. The experiment in a line: F(ab)'2 phage solution binding competition ELISA.
Description: as §3
In test [15] the target is T4, mouse BR3 extracellular domain. Nature of the test: F(ab)'2 phage solution binding competition ELISA.
Description: as §3
Test [16] deals with T5, mouse BR3-Fc. Nature of the test: BAFF blocking ELISA: F(ab)'2 phage added to coated mBR3-Fc after mBAFF-Flag.
Description: The wells were blocked by adding 65 ul 1% BSA for 30 minutes followed by 40 ul 1% Tween20 for another 30 minutes. Next, the wells were washed five times with PBS—0.05% Tween20. […] The wells were washed five times with PBS—0.05% Tween20.
Binding was quantified by adding 75 ul/well of horse radish peroxidase (HRP)-conjugated anti-M13 antibody in PBS plus 0.5% BSA and 0.05% Tween20 at room temperature for 30 minutes (Sidhu et al., supra). The wells were washed with PBS—0.05% Tween20 at least five times.
Test [17] deals with T2, variant human BR3-Fc fusion. Nature of the test: BIAcore, Fab over immobilised target.
Description: as §1

Substitutions are numbered along the chain they refer to. Where “and” joins values, the source holds several entries; their conditions need not be identical. Identical values can stand only once. Like-named read-outs stand apart in the source and are kept apart here.

B1: chimeric 2.1 Fab (Fab, V domains shown)
VH: EVQLQESGPSLVKPSQTLSLTCSVTGDSITRGYWNWIRKFPGNKLEFMGYINYSGTTYYNPSLKSRISITRDTSKNQYYLQLNSVTTEDTATYYCATPHTYGAMDYWGQGTTLTVSA
VL: DIVLTQSPVSLAVSLGQRATISCRASESVDDYGISFMHWYQQKPGQPPKLLIYRASDLESGIPARFSGSGSGTDFTLTINPVETDDVAIYYCQQTSKDPWTFGGGT
notes: Fab with murine variable domains; also called Ch 2.1 Fab
As usually defined, the Kd is the free concentration of one partner at which half of the binding sites on the other are occupied at equilibrium, for simple one-to-one binding. The low end stands for tighter binding, the high end for weaker binding. As usually defined, the koff is a measure of how fast the partners let go of each other. Usually kon stands for the second-order rate constant of association. The low end stands for slow association, the high end for fast association. On to B1, for which the Kd is 0.12 nM and 0.11 nM in [1]; 0.115 nM in test [2]; 1.12 nM in [3] (140 RU BR3-Fc immobilized); 0.92 nM in test [3] (220 RU BR3-Fc immobilized). In addition, the koff in [1] is 0.000271 s⁻¹ and 0.000294 s⁻¹; in test [3] (140 RU BR3-Fc immobilized), 0.00148 s⁻¹; in [3] (220 RU BR3-Fc immobilized), 0.00145 s⁻¹. Also, the kon in test [1] is 2.25e+06 M⁻¹ s⁻¹ and 2.65e+06 M⁻¹ s⁻¹; in [3] (140 RU BR3-Fc immobilized), 1.32e+06 M⁻¹ s⁻¹; in test [3] (220 RU BR3-Fc immobilized), 1.58e+06 M⁻¹ s⁻¹.

B2: V3-1 Fab (Fab, V domains shown)
VH: EVQLVESGGGLVQPGGSLRLSCAASGFTISSNSIHWVRQAPGKGLEWVAWITPSDGNTDYADSVKGRFTISADTSKNTAYLQMNSLRAEDTAVYYCARRVCYNRLGVCAGGMDYWGQGTLVTVSS
VL: DIQMTQSPSSLSASVGDRVTITCRASQDVSTAVAWYQQKPGKAPKLLIYSASFLYSGVPSRFSGSGSGTDFTLTISSLQPEDFATYYCQQSRITPPTFGQGTKVEIKR
notes: soluble Fab in SPR
As usually defined, the IC50 is the concentration needed to halve the response being measured. A low value points to higher potency. For the molecule B2, the IC50 in [4] stood at 5.4 nM; in test [9], 9.5 nM; in [10] it was 9.4 nM. For the same molecule, the “OD450nm reduction (%)” value in [5] and in test [6] was under 50% each time. For the same molecule, the Kd in test [7] worked out at 2.5 nM; in test [8] it was 7.9 nM; in test [11], 7.87 nM; in test [12], 2.5 nM. Besides, the koff in [7] was found to be 0.000195 s⁻¹; in [8] it was 0.000293 s⁻¹; in test [11] it was 0.000293 s⁻¹; in test [12], 0.000195 s⁻¹. Besides, the kon in test [7] was determined as 77100 M⁻¹ s⁻¹; in test [8], 37300 M⁻¹ s⁻¹; in [11], 37300 M⁻¹ s⁻¹; in test [12], 77100 M⁻¹ s⁻¹.

B3: 46 (Fab, V domains shown)
VH: EVQLVESGGGLVQPGGSLRLSCAASGFTITGSYIHWVRQAPGKGLEWVAWIYPDGGYTDYADSVKGRFTISADTSKNTAYLQMNSLRAEDTAVYYCASKPAGFGYWGQGTLVTVSS
VL: B2 VL with R92Y, I93T
notes: also called V46; clone 46 of the naive library (not V3-46)
As to B3, the binding result in test [13] and in [14] was “binds” each time.

B4: 75 (Fab, V domains shown)
VH: EVQLVESGGGLVQPGGSLRLSCAASGFTINGSWIHWVRQAPGKGLEWVAWITPSNGSTDYADSVKGRFTISADTSKNTAYLQMNSLRAEDTAVYYCARLSRRPWLWGMDYWGQGTLVTVSS
VL: B2 VL with R92Y, I93T
notes: also called V75; clone 75
B4 showed an IC50 in [13] of over 10000 nM. Further, the binding result is reported as “no binding” in test [15] and “binds” in test [14].

B5: V3-13 Fab (Fab, V domains shown)
VH: B2 VH with S31R, N32R, N103S, R104S, L105V, G106R, V107G, G111A
VL: B2 VL with S50G, F53N, R92H, I93A, T94S
notes: soluble Fab in SPR
The molecule B5 gave an IC50 in [4] of 473 nM. For the same molecule, the “OD450nm reduction (%)” value in [5] and in test [6] was under 50% in each case. For the same molecule, the Kd in [7] was 40 nM; in test [8] it was 1200 nM. This molecule yielded a koff in test [8] of 0.0028 s⁻¹. In [8], this molecule came in with a kon of 2300 M⁻¹ s⁻¹.

B6: 89 (Fab, V domains shown)
VH: EVQLVESGGGLVQPGGSLRLSCAASGFTITGYGIHWVRQAPGKGLEWVAGITPANGYTDYADSVKGRFTISADTSKNTAYLQMNSLRAEDTAVYYCAKSFPFHYNFDYWGQGTLVTVSS
VL: B2 VL with R92Y, I93T
notes: also called V89; clone 89
With B6, the IC50 in test [13] is 37 nM; in test [14], 5000 nM. Besides, the binding result in test [15] was “no binding”. The “Blocking to % (phage bound in the presence of BAFF)” value in test [16] turned out to be 90%.

B7: 24 (Fab, V domains shown)
VH: EVQLVESGGGLVQPGGSLRLSCAASGFTISGSSIHWVRQAPGKGLEWVGTIYPYGGNTYYADSVKGRFTISADTSKNTAYLQMNSLRAEDTAVYYCARRAFVMSGMDYWGQGTLVTVSS
VL: B2 VL with R92Y, I93T
notes: also called V24; clone 24
B7 displayed an IC50 in test [13] of 133 nM. The binding result in test [15] is reported as “no binding”; in [14], “binds”. Moreover, the “Blocking to % (phage bound in the presence of BAFF)” value in test [16] was 90%.

B8: V3-12 Fab (Fab, V domains shown)
VH: B2 VH with N103D, L105A, G106R, G111A
VL: B2 VL with R92Y, I93S
notes: soluble Fab in SPR
Take B8: the IC50 in [4] amounted to 35 nM. Also, the “OD450nm reduction (%)” value in [5] and in [6] was under 50% throughout. In addition, the Kd amounted to 36 nM in test [7] and 72 nM in test [8]. Also, the koff is 0.0013 s⁻¹ in test [7] and 0.00091 s⁻¹ in test [8]. Besides, the kon in test [7] was 36000 M⁻¹ s⁻¹; in test [8], 13000 M⁻¹ s⁻¹.

B9: V3-11 Fab (Fab, V domains shown)
VH: B2 VH with R104N, G111A
VL: B2 VL with S91T, R92S, I93T, T94S
notes: soluble Fab in SPR
In turn, B9 yielded an IC50 in [4] of 11 nM. The “OD450nm reduction (%)” value in test [5] was under 50%. For the same molecule, the “OD450nm reduction (%)” value in [6] is under 50%. Besides, in test [7], binding was characterised by a dissociation constant (Kd) of 20.4 nM, the koff was determined as 0.000888 s⁻¹ and the kon came out at 43600 M⁻¹ s⁻¹. In test [8], this molecule displayed a Kd of 60.1 nM, a koff of 0.00113 s⁻¹ and a kon of 21800 M⁻¹ s⁻¹.

B10: Hu9.1-73 Fab (Fab, V domains shown)
VH: EVQLVESGGGLVQPGGSLRLSCAASGLPMAGFYTSWVRQAPGKGLEWVGFIRDKANGYTTEYNPSVKGRFTISADTSKNTAYLQMNSLRAEDTAVYYCAQVRRALDYWGQGTLVTVSS
VL: DIQMTQSPSSLSASVGDRVTITCKSSQSLLYSSNQNNYLAWYQQKPGKAPKLLIYWAQHLDSGVPSRFSGSGSGTDFTLTISSLQPEDFATYYCQQYYTYPYTFGQGTKVEIKR
notes: Fab expressed in E. coli
For B10, in test [1], the Kd was 0.31 nM and 0.32 nM; the koff was 0.000174 s⁻¹ and 0.000175 s⁻¹; the kon is 560000 M⁻¹ s⁻¹ and 550000 M⁻¹ s⁻¹. Moreover, the dissociation constant Kd in test [17] came to 0.45 nM. Moreover, in test [3], the Kd is 0.43 nM and 0.48 nM; the koff is 0.000215 s⁻¹ and 0.000225 s⁻¹; the on-rate (kon) was 500000 M⁻¹ s⁻¹ and 470000 M⁻¹ s⁻¹.

B11: Hu9.1-88 Fab (Fab, V domains shown)
VH: B10 VH with L27F, M29V, A30T, F32S, T34V, A74R, A81L
VL: B10 VL with Q58S, H59T, L60R, D61E
notes: Fab
As for B11, the Kd in test [1] amounted to 0.736 nM; in test [2], 6.3 nM; in test [17] it was 11 nM; in test [3], 1.37 nM. The results for the koff in test [1] and in test [3] were 0.00101 s⁻¹ and 0.000742 s⁻¹, respectively. Moreover, the kon in test [1] came out at 1.37e+06 M⁻¹ s⁻¹; in [3] it was 541000 M⁻¹ s⁻¹.

B12: chimeric 11G9 Fab (Fab, V domains shown)
VH: DVQLQESGPSLVKPSQTLSLTCSVTGDSITSGYWNWIRKFPGNKLEYMGYISYSGSTYYNPSLKSRISITRDTSKNQFYLQLLSVTTEDTATYYCAGLDGLYWYFDVWGAGTLVTVSS
VL: DIVMTQTPLSLPVSLGDQASISCRSSQSLVHSNGNTYLHWYLQKPGQSPKLLIYKVSNRFSGVPDRFSGSGSGTDFTLKISRVEAEDLGVYFCSQSTHVPPFTFGSGT
notes: Fab with murine variable domains; also called Ch 11G9 Fab
Turning to B12, in test [1], the Kd is 19.5 nM and 23.5 nM; the koff is 0.0233 s⁻¹ and 0.0263 s⁻¹; the kon is 1.2e+06 M⁻¹ s⁻¹ and 1.12e+06 M⁻¹ s⁻¹. In addition, in test [2], the Kd is 21.5 nM. Besides, in test [17], the Kd was over 100 nM.

These data come from patent US20100280227A1 (Genentech, published 2010).
